Positions count from the first letter of the chain named.
T1: human TREM2 (triggering receptor expressed on myeloid cells 2) (human) (UniProt Q9NZC2)
T1 sequence (looked up): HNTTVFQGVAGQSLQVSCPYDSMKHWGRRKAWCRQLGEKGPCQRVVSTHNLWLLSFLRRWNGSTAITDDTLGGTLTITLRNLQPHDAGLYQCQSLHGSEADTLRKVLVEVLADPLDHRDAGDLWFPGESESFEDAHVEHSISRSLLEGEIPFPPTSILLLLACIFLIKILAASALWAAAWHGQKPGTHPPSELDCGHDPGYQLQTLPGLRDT

B1: 6E7 antibody affinity modulation variant V36 (antibody, V domains shown)
VH: EVQLVQSGAEVKKPGESLKISCKGSGYSFTSYWLAWVRQMPGKGLEWMGIIYPGDSDTRYSPSFQGQVTISADKSISTAYLQWSSLKASDTAMYFCARSRTFYYDSSDYFDYWGQGTLVTVSS
VL: DIQMTQSPSSVSASVGDRVTITCRASQGISSWLAWYQQKPGKAPKLLIYAASSRQNGVPSRFSGSGSGTDFTLTISSLQPEDFATYFCQQADSYPRTFGQGTKLEIK
B2: 6E7 antibody affinity modulation variant V65 (antibody, V domains shown)
VH: B1 VH with L34I
VL: B1 VL with R54L, Y94F
B3: 6E7 antibody affinity modulation variant V1 (antibody, V domains shown)
VH: B1 VH with Y32S, L34I
VL: B1 VL with R54L, Q55T
B4: 6E7 antibody affinity modulation variant V39 (antibody, V domains shown)
VH: B1 VH with T30G, L34I, S61N, S99G
VL: B1 VL with R54L, Q55V, Y94S
B5: 6E7 antibody affinity modulation variant V51 (antibody, V domains shown)
VH: B1 VH with L34I, T58V, S99G, Y112N
VL: B1 VL with Y94F
B6: 6E7 antibody affinity modulation variant V62 (antibody, V domains shown)
VH: B1 VH with T30G, L34I, S61A, S99Q, D108G
VL: B1 VL with R54L, N56R, Q89G, Y94F
B7: 6E7 antibody affinity modulation variant V38 (antibody, V domains shown)
VH: B1 VH with T30G, L34I, T58V, S99Q
VL: B1 VL with Y94H
B8: 6E7 antibody affinity modulation variant V41 (antibody, V domains shown)
VH: B1 VH with L34I, I50T, S99Q
VL: B1 VL with R54L, Y94F
B9: 6E7 antibody affinity modulation variant V63 (antibody, V domains shown)
VH: B1 VH with T30R, L34I
VL: B1 VL with R54L, N56R, S93R, Y94F
B10: 6E7 antibody affinity modulation variant V2 (antibody, V domains shown)
VH: B1 VH with Y27S, L34I, S56G
VL: B1 VL with S93R, Y94F
B11: 6E7 antibody affinity modulation variant V61 (antibody, V domains shown)
VH: B1 VH with T30S, L34I, S61N, S99G
VL: B1 VL with R54L, Q55V, Y94L
B12: 6E7 antibody affinity modulation variant V48 (antibody, V domains shown)
VH: B1 VH with T30G, L34I, T58V, S99M
VL: B1 VL with R54L, N56T, Y94L
B13: 6E7 antibody affinity modulation variant V50 (antibody, V domains shown)
VH: B1 VH with T30G, L34I, I50V, S99Q, F110L
VL: B1 VL with Y94L
B14: 6E7 antibody affinity modulation variant V40 (antibody, V domains shown)
VH: B1 VH with T30G, L34I, T58V, S99Q, F110S
VL: B1 VL with R54L, N56L, S93R, Y94F
B15: 6E7 antibody affinity modulation variant V64 (antibody, V domains shown)
VH: B1 VH with T30Q, L34I, S99G
VL: B1 VL with R54L, Q55A
B16: 6E7 antibody affinity modulation variant V60 (antibody, V domains shown)
VH: B1 VH with S28H, L34I, T58V, S99Q, F110S
VL: B1 VL with R54L, N56R, Q89G, Y94F
B17: 6E7 antibody affinity modulation variant V37 (antibody, V domains shown)
VH: B1 VH with F29H, L34I, Q65A
VL: B1 VL with R54L, N56W
B18: 6E7 antibody affinity modulation variant V73 (antibody, V domains shown)
VH: B1 VH with T30G, L34I, S63G, S99G
VL: B1 VL
B19: 6E7 antibody affinity modulation variant V53 (antibody, V domains shown)
VH: B1 VH with L34I, S63H, S99Q
VL: B1 VL with R54L, Y94F
B20: 6E7 antibody affinity modulation variant V49 (antibody, V domains shown)
VH: B1 VH with T30N, L34I, I50T, Y60L
VL: B1 VL
B21: 6E7 antibody affinity modulation variant V18 (antibody, V domains shown)
VH: B1 VH with W33H, L34I, S99Q
VL: B1 VL with R54L, Y94F
B22: 6E7 antibody affinity modulation variant V21 (antibody, V domains shown)
VH: B1 VH with L34I, S99Q, Y109F
VL: B1 VL with R54L, Y94F
B23: 6E7 antibody affinity modulation variant V20 (antibody, V domains shown)
VH: B1 VH with L34I, I50R, S99Q
VL: B1 VL with R54L, Y94F
B24: 6E7 antibody affinity modulation variant V30 (antibody, V domains shown)
VH: B1 VH with Y27S, L34I, S99Q
VL: B1 VL with R54L, Y94F
B25: 6E7 antibody affinity modulation variant V11 (antibody, V domains shown)
VH: B1 VH with L34I, S99Q
VL: B1 VL with R54L, D92A, Y94F
B26: 6E7 antibody affinity modulation variant V22 (antibody, V domains shown)
VH: B1 VH with L34I, S99Q
VL: B1 VL with A50R, R54L, Y94F
B27: 6E7 antibody affinity modulation variant V23 (antibody, V domains shown)
VH: B1 VH with L34I, S99Q
VL: B1 VL with R54L, Y94F, R96L
B28: 6E7 antibody affinity modulation variant V31 (antibody, V domains shown)
VH: B1 VH with L34I, D57E, S99Q
VL: B1 VL with R54L, Y94F
B29: 6E7 antibody affinity modulation variant V32 (antibody, V domains shown)
VH: B1 VH with L34I, P62N, S99Q
VL: B1 VL with R54L, Y94F
B30: 6E7 antibody affinity modulation variant V19 (antibody, V domains shown)
VH: B1 VH with Y32S, L34I, S99Q
VL: B1 VL with R54L, Y94F
B31: 6E7 antibody affinity modulation variant V33 (antibody, V domains shown)
VH: B1 VH with L34I, S99Q, Y104G
VL: B1 VL with R54L, Y94F

Each binder was assayed against T1, human TREM2 (triggering receptor expressed on myeloid cells 2) (human) (assay: 2nd screen, 2 nM Ab).

Binding Signal (fold over 6E7 parental antibody) [fold] | Binder
4 | B1
1.29 | B2
1.29 | B3
5.11 | B4
1.83 | B5
1.87 | B6
3.44 | B7
0.58 | B8
4.91 | B9
2.23 | B10
3.63 | B11
2.3 | B12
3.39 | B13
3.41 | B14
4.88 | B15
3.35 | B16
3.69 | B17
4.17 | B18
0.66 | B19
5.02 | B20

What follows are binders tested against T1, human TREM2 (triggering receptor expressed on myeloid cells 2) (human) (assay: 1st screen, 10 nM Ab).

Binding Signal (fold over 6E7 parental antibody) [fold] | Binder
3.38 | B1
2.05 | B2
1.68 | B3
6.15 | B4
2.81 | B5
2.49 | B6
4.34 | B7
1.74 | B8
3.76 | B9
2.55 | B10
5.08 | B11
2.42 | B12
4.1 | B13
4.48 | B14
5.41 | B15
3.26 | B16
3.46 | B17
5.12 | B18
1.25 | B19
6.51 | B20

What follows are binders tested against T1, human TREM2 (triggering receptor expressed on myeloid cells 2) (human) (assay: 2nd screen, 10 nM Ab).

Binding Signal (fold over 6E7 parental antibody) [fold] | Binder
3.44 | B1
2.75 | B2
1.92 | B3
5.81 | B4
3.18 | B5
2.89 | B6
4.36 | B7
1.72 | B8
3.71 | B9
2.9 | B10
5.22 | B11
2.54 | B12
4.16 | B13
4.16 | B14
5.48 | B15
3.63 | B16
3.49 | B17
5.44 | B18
1.17 | B19
6.58 | B20

Each binder was assayed against T1, human TREM2 (triggering receptor expressed on myeloid cells 2) (human) (assay: 1st screen, 110 nM Ab).

Binding Signal (fold over 6E7 parental antibody) [fold] | Binder
0.17 | B21
0.76 | B22
0.18 | B23
0.79 | B24
0.79 | B25
0.3 | B26
0.4 | B27
0.61 | B28
0.82 | B29
0.59 | B30
0.23 | B31

The binders below were run against T1, human TREM2 (triggering receptor expressed on myeloid cells 2) (human) (assay: 2nd screen, 100 nM Ab).

Binding Signal (fold over 6E7 parental antibody) [fold] | Binder
0.42 | B21
0.68 | B22
0.52 | B23
0.72 | B24
0.42 | B25
0.71 | B26
0.4 | B27
0.73 | B28
0.89 | B29
0.48 | B30
0.34 | B31

Source: patent US20250019437A1
